Results published in a protein production outcome set (Wang et al. 2014).

Assay: label from the status in PepcDB records

Sequence	protein production
MGHHHHHHSHMLITVYCVRRDLSEVTFSLQVSPDFELRNFKVLCEAESRVPVEEIQIIHMERLLIEDHCSLGSYGLKDGDIVVLLQKDNVGPRAPGRAPNQPRVDFSGIAVPGTSSSRPQHPGQQQQRTPAAQRSQGLASGEKVAGLQGLGSPALIRSMLLSNPHDLSLLKERNPPLAEALLSGSLETFSQVLMEQQREKALREQERLRLYTADPLDREAQAKIEEEIRQQNIEENMNIAIEEAPESFGQVTMLYINCKVNGHPLKAFVDSGAQMTIMSQACAERCNIMRLVDRRWAGVAKGVGTQRIIGRVHLAQIQIEGDFLQCSFSILEDQPMDMLLGLDMLRRHQCSIDLKKNVLVIGTTGTQTYFLPEGELPLCSRMVSGQDESSDKEITHSVMDSGRKEH	failed
MSWAAPDDIFFSTSLAAYLDKKLLVLLRDGRKLMGLLRSFDQFANAVLEEAYERVIVGDLYCDIPLGLYIIRGENVVLIGELDVEKEELPAHMVQVPEAEIKRAQKAEKEEMLLKGTMRKRMEFLDLD	failed
MSLDIQSLDIQCEELSDARWAELLPLLQQCQVVRLDDCGLTEARCKDISSALRVNPALAELNLRSNELGDVGVHCVLQGLQTPSCKIQKLSLQNCCLTGAGCGVLSSTLRTLPTLQELHLSDNLLGDAGLQLLCEGLLDPQCRLEKLQLEYCSLSAASCEPLASVLRAKPDFKELTVSNNDINEAGVRVLCQGLKDSPCQLEALKLESCGVTSDNCRDLCGIVASKASLRELALGSNKLGDVGMAELCPGLLHPSSRLRTLWIWECGITAKGCGDLCRVLRAKESLKELSLAGNELGDEGARLLCETLLEPGCQLESLWVKSCSFTAACCSHFSSVLAQNRFLLELQISNNRLEDAGVRELCQGLGQPGSVLRVLWLADCDVSDSSCSSLAATLLANHSLRELDLSNNCLGDAGILQLVESVRQPGCLLEQLVLYDIYWSEEMEDRLQALEKDKPSLRVIS	not failed
IPLEQGIEFLSVNVEEDSPVVGKKLKDLPLPRDSIIAAIVRGGVLVVPRGDTEILSGDKLYVIVSAEAKETVEETLLGR	not failed
MTATLQVTIVVGYLLVALAIGLLAYRVTERAAEDFYLASRTFGTAVLLFTVFATLLSAFTFFGGPDNAYAFGPEWILVMGLMDGLIFAILWYLIGYKQWLLGQRHGYVTLGEMFGDRFGSTGVRALVAVVSLFWLFPYVMLQQIGAGGALAALTDGVVPFWAGASLITGFMILYVVLAGMRGIAWTDTLQGAFMLCMVWAALVWVLVAVDGGVSTINAGLTESSPEFFALGSDFYTPGTMLTFAISIAFGVAMFPQVNQRFFTAASETVLKRSFALWPLLVLLLFVPAFLLGTWAQGLGLQADVGAGESILPILLDTYTPAWFAALVIAGAIAAMMSSSDSMLLSGSSYFTRDVYRPLVDDGITERQEDRLGRIGVAVFAIAALAASVWAEAEAFGAVAVGSVLVEIGDLAFGGFAQLTVPVLVALYWRGTTKQGLVAGILLPQAVYLAFNFLPATEVGSAMLFSETYLGWGISIYCLLLGLVATVVVSAATTKADSERPALFFESLRRG	failed
DGQPVAMGDVGELVIGGVGLARYLDPVKDREKFSAELGWERAYRSGDHVRLCEDGLYFVGRIDDQVKIGGRRIELGEVEAHVAALPNVAQYAVVVRETAAGEKVLVAYVSPQVPDVDIDTSALDELPRAMVPRLVVLPEIPTTTSGKADKKALPWPLESAQVTGSDFTPTQQWLAQLWVDVLGVPVGDVD	failed
QDVLRGTLNLYCSVTAAYSHLPQLLERFRQEHPFVEIALTTGDAANALAEIQQNRADIAIAALPDPFPATLHFAKIDDVPLSLIAPTMRCAVQQQISQTQIDWARVPFIIPDHGPGRRRADNWFKQMGISPNIYAQVSGQEAIASMVALG	failed
FRLIGKHRLPRVDSAAKSDGSALYTQDMKLPGMLVAVVAHAPRLGAAVARVDDAAARAVPGVRAVVRFGGAALRHAGVAVLATNTWAARAGRDALRIEWDEGP	failed
FGAEFSSEACRELGFSSNLLCSSCDLLGQFNLLQLDPDCRGCCQEEAQFETKKLYAGAILEVCGUKLGRFPQVQAFVRSDKPKLFRGLQIKYVRGSDPVLKLLDDNGNIAEELSILKWNTDSVEEFLSEKLERI	failed
PVPGIRCRDAFSAASGIIDKMACVPELAVSEISAPRIVSSLAGDGHALFVANSMPARDMDLYAAPVAQKPLQVALNRGVSGIDGIISTAAGFSAGLGKPTTLLIGDISFLHDLNALCLLNHPWNPLIVIVLNNHGGSIFSFLPIASQTDRLDECFATPQNFSIESAARTFGIDYACPETNGDFTQLYAEALTTKKSLIIEIRSDREKNLLLHRSLKARLDPVFEKADC	failed
SKDVLADYKELFRQFSISDIAVWVSTPSFAGVCITEKEFNSKMLPNLESMIFIGEALSKNLTKELMSRFPNTRIINGYGPTEATVGVSVNDMTQKAIDDEK	failed
MNMKFTKILVQIAALYVFYMVGTWVQEMLNIPIPGSLIGMFLLLVLLSLKVLPVKWFDLGAETLVAIMPFLLIPPTLGLMNYGAFFMSKGISLFITVVASTFLIIIVAGHTGQYLANRKERESR	failed
MLLNKYFLANRNINFIVMALLFSSSYISASSFISGPSAVYKYGLSFILLATIQIPTTLIVFIIVGQRLNRESKKINAINIIDYIRHRYESDFLALMSGFVLIFFSMFLISAQLIGGAKLIEVFWGIDYVVGLTFFAFLVFIYVFFGGFKAVAYTDLIQGFLMLVSSVILFSKMLDLGGGINNLFKTATSSLDKSLLLPSNADLKPQYIISFWILIGIGILGQPQIINNFIAFKDENAIKFSLPISTFIISFLIVLMHLIGFFAIILFPDLSPNDKVVLNVALKVLNPFSCFMFFIGLLSAIMSTVDSNLLLITSVLIKSIFIYKEDLKEDVKIGRIIMISNIFFILIILIFSLFPPNFLFFINIFAFGALEVSFFPIIVFGLYLNFVSKIAAFASMFLGLIFYLSILFFGLNIWFFHPVFPSFFVSIFTFLVVNFFCKKNSKVC	failed
MKSYVLGEFGAEAALLDAARTLRARGGATLDLHSPYPLHGAEEALGLRKSTVPLVALVAGITGAVSGYLLQWYTVGYAWPLNVGNRPPHSAPAFIPVTFELGVLFSALAIFVGLLAVYFGFPRVHHPVFEVEAFRSASIDGLWLSAEVEAGDADAVAAELRRLGARLVSVVPEGK	failed
MRVQANSRSMGVLEDKARARTFYKYLSKVYDRVNTFIWTEEMRAEALSMLDIDAEDRVLDVGCGTGFGTEGLLKHTEHVYGLDQSPHQLTKAWEKFGKHDPVAFHFGDAERLPFKPDSFDVVWSSGSIEYWPHPVQGLRELRRVAKPGSQVLVVGPDYPASTVFRKLADAIMLFYDEDEADRMFREAGYEEIQHRVLRKEPNSPPAIVTVARAPAADD	failed
ARQVTPGQVMVASTVGKLSALLAADLSDEQAQRLGLDTLLPLRESDGPTLFCFHPASGFAWQFSVLARYLSPRWSITGIQSPRPQGPMASAASLDEVCEHHLQTLLAQQPHGPYYLFGYSLGGTLAQGIAARLRQRGEAVAFLGLLDTWPPETQNWAEKEANGLDPEVLAEIDREREAFLAAQQGQASGELFSAIEGNYADAVRLLTTAHSAKFDGKATLFVAEKTRQEGMDPQVVWGPWVGELEVFSQNCAHVDIISPQAFEAIGPVVREILG	not failed
MLPIWFLIVIILKSVEFVITSFFLRDISKEMIFFSDLLGRIIVIIFYVLPIATYISVMFSQFLYLFIIHIFLYIICFMAFVSSALRIKRCIH	failed
MKIKHWDRWLASLKDDDYLKNIEAIKLYLAVMSIYEPDLLDEYMIDDDFHPMISRLKNVTLDVTSARFKELYITESKMNYARDELDGAMIISKTLTKSDIVGNVALPKAQVMSVLTRMNGVTDEGLDNGFEVQVHDIMEDDLYTVTLKRIDDMKYYFGTGWSTMKHSLDLVEGDVQKLYWDQFENKFIVLNFQHKTMGIMIPV	failed
MNIRERKRKHLEACLEGEVAYQKTTTGLEGFRLRYQALAGLALSEVDLTTPFLGKTLKAPFLIGAMTGGEENGERINLALAEAAEALGVGMMLGSGRILLERPEALRSFRVRKVAPKALLIANLGLAQLRRYGRDDLLRLVEMLEADALAFHVNPLQEAVQRGDTDFRGLVERLAELLPLPFPVMVKEVGHGLSREAALALRDLPLAAVDVAGAGGTSWARVEEWVRFGEVRHPELCEIGIPTARAILEVREVLPHLPLVASGGVYTGTDGAKALALGADLLAVARPLLRPALEGAERVAAWIGDYLEELRTALFAIGARNPKEARGRVERV	not failed
